± gives the standard deviation of the averaged measurements.
System: ATP
Assay: switch fluorescence ratio, 500 uM ATP over buffer (Cy3 cluster intensity, sum of 5 cycles each) (fold (ratio)); higher = stronger signal-on switching upon ATP binding; sequences stand for … in TCGTCGGCAGCGTCAGATGTGTATAAGAGACAGTTTTTTTTTTTTTTTTTTTTTTTTT…TC
Settings: aptamer strand: ATP DNA aptamer (quencher-CACCTGGGGGAGTATTGCGGAGGAAGG + anchor), 100 nM annealed; ATP concentration: 500 uM
Outline: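 Clusters carrying Cy3-labelled switching strands on a modified Illumina MiSeq flow-cell were annealed to 100 nM quencher-labelled ATP aptamer and imaged in selection buffer. They were imaged again after 15 min with 500 uM ATP at 22 °C, over five buffer/ATP cycles with NaOH stripping and re-annealing in between. For each cluster, the fluorescence ratio is the summed Cy3 intensity of the target cycles divided by that of the buffer cycles, averaged per switch-domain sequence. Clusters outside 100-1000 RFU were left out.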
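Further: ATP exposure 15 min at 22 °C before imaging.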

Sequence | switch fluorescence ratio
ATAGCATGTA | 0.991 ± 0.01
GGGTGACAAT | 1 ± 0.04
AGGGTAAAGG | 0.989 ± 0.019
AGGACTGTCT | 0.986 ± 0.018
AAAATCTAAA | 1.014 ± 0.0068
TTGATTGACA | 1 ± 0.043
AGCGCCAGGG | 1.13 ± 0.035
AGTTCCCCTT | 1.052 ± 0.0024
TACTTATTGT | 0.9755 ± 0.0083
ACATCAGAAT | 1.01 ± 0.028
TGCCCTGCCT | 1.03 ± 0.024
TATTAGGTA | 1.01 ± 0.017
TGCTGCTCAG | 1.01 ± 0.032
GTTTCCGTTT | 0.973 ± 0.017
CGGGCTATGG | 1 ± 0.023
AGGGAGCTCC | 1.01 ± 0.025
CCTTACGGCA | 1.53 ± 0.068
GATTTGAGTG | 0.959 ± 0.027
CATAGTTTTT | 1.02 ± 0.025
GCGAGGTGGT | 1.001 ± 0.0076
GTTTAGTTTG | 0.992 ± 0.044
GTTTTTTAAC | 1.01 ± 0.04
CTCGCTAGGA | 1.05 ± 0.019

Sequence | switch fluorescence ratio
TTGGGCGGTT | 1.13 ± 0.25
GGCGGTGGGT | 0.999 ± 0.038
ACATGTGCGT | 1.004 ± 0.01
AAAGCTATTC | 1.12 ± 0.16
CATTTTGGTC | 1.002 ± 0.0039
TGCAAAAAGG | 1.03 ± 0.014
AAGGCGGCGG | 0.991 ± 0.034
TAAGGGGTTC | 0.982 ± 0.022
ACAGTCTGCG | 0.962 ± 0.037
TTTCTAGTCG | 0.971 ± 0.019
ATGCTTGAAC | 1.037 ± 0.0095
GGCTGGATCT | 0.975 ± 0.027
ATATTGGCAT | 1.02 ± 0.026
AGGCCAGGGG | 1.06 ± 0.1
GTTTGGGTCA | 1.03 ± 0.011
GAGCGTGGGA | 1.11 ± 0.081
TATAAAAAGC | 1 ± 0.013
CAAGGGGGTG | 1.03 ± 0.03
GGTGTTTGGG | 1 ± 0.039
GTTATTTAGA | 1.03 ± 0.043
GATGCTCCTT | 1.05 ± 0.031
GGTTCGTATT | 0.975 ± 0.038
ACAAGAGGTT | 0.995 ± 0.018

Sequence | switch fluorescence ratio
CGAAGTACAT | 1.16 ± 0.0019
AATACGAGTC | 1.09 ± 0.022
GGTTTAAGGT | 1.01 ± 0.02
TTTCTGGTTT | 1 ± 0.016
TCGGCATGAT | 0.998 ± 0.011
TCAGCGAAAT | 0.99 ± 0.016
ACCGATCTCA | 1.048 ± 0.0089
GGGGTTACGG | 0.996 ± 0.062
TGCTTACTTT | 1.33 ± 0.58
TGGGTTTCTA | 0.964 ± 0.021
GCGTTTTTTT | 0.98972 ± 0.0007
TCTGTGTTGG | 0.98 ± 0.02
TTTCACATGG | 1.052 ± 0.0044
TTAGACGGGA | 1.026 ± 0.0043
CGATGGACGG | 1.01 ± 0.033
GCGGGATGGG | 1.08 ± 0.07
TTACAGCATT | 1.07 ± 0.067
GATAAAGTGG | 0.995 ± 0.041
TCGTAGGAGC | 1.03 ± 0.02
ATGGGTCTGC | 1.16 ± 0.31
ATATGGGGTG | 1.05 ± 0.046
TGAGGAGGGA | 0.987 ± 0.013
GGTTGACTTG | 1.01 ± 0.059

Sequence | switch fluorescence ratio
CGTGGCGGGA | 0.923 ± 0.09
CTGTAATTGT | 0.98817 ± 0.00075
GAAGTTCGGC | 1.006 ± 0.0056
GTTCAAGGCT | 1.0016 ± 0.0002
AGATTCATGC | 1.01 ± 0.019
ATGTTGGGGG | 0.989 ± 0.018
AGAGCTTGAT | 1 ± 0.036
AAGTCTGCAG | 1.002 ± 0.01
CATGGGTTTG | 0.9923 ± 0.0031
TCCTGGGGAT | 0.99 ± 0.039
CGTTGGTGAG | 0.9373 ± 0.0065
ATTTCGGGGT | 1.01 ± 0.042
GAAAAAAGTA | 1.01 ± 0.031
CCAGAAAAGG | 1.31 ± 0.47
ACGGGGGATG | 0.995 ± 0.025
TACTTAGGTG | 1.17 ± 0.12
AGGGAAGGGC | 1.032 ± 0.0084
TTCGTAACGC | 1.03 ± 0.038
AGTAGATGGC | 1.02 ± 0.053
GGAAAGACGA | 1.01 ± 0.016
TGCTGGCATG | 0.967 ± 0.014
TCGGAAGGGG | 1.17 ± 0.3
TAATTTGTGT | 1.01 ± 0.014

Sequence | switch fluorescence ratio
ACCAAGTATC | 1.04 ± 0.036
GGGGGTTGTG | 1 ± 0.036
ATAAGTTTTG | 0.978 ± 0.027
TACTTAAGTG | 1.02 ± 0.047
TTGTATAGGA | 0.998 ± 0.029
TCAAGGTTCT | 0.998 ± 0.014
ATTTTAACTT | 1.35 ± 0.44
ATTTGTTTTT | 0.978 ± 0.01
TATTTGAATC | 1.15 ± 0.24
GGGGGAACCT | 1.0549 ± 0.00095
TTGTGAGGGA | 0.9946 ± 0.0034
AAGTGAATGG | 0.9986 ± 0.0032
CATAGAGTTG | 1.03 ± 0.084
AATTTTCCAC | 1.02 ± 0.043
TGGGCG | 0.994 ± 0.018
ATTTGCTATT | 1.003 ± 0.0045
TGTGGGTGGG | 0.978 ± 0.025
TGACTTGGG | 0.935 ± 0.02
ATTTGTATTG | 1.01 ± 0.022
AAAAGTATAC | 1.06 ± 0.072
CTCAACGATT | 1.03 ± 0.048
TTACCGGACT | 1.11 ± 0.042
CATTGAATAT | 0.996 ± 0.043

Sequence | switch fluorescence ratio
ATTGTATAAG | 0.9828 ± 0.0052
TGCCTATTTC | 1.02 ± 0.017
TTGTATGGGG | 0.984 ± 0.033
CGGGGATCGT | 1 ± 0.032
ATAGAGGCAC | 1.09 ± 0.099
ATCTCGTTA | 1.04 ± 0.053
GGGCGGGGAA | 1.03 ± 0.035
GTTGTTTTTA | 0.987 ± 0.01
CTGGTTAGGA | 1 ± 0.066
TTATGAAGGA | 1.02 ± 0.021
ATAGCTAGTG | 0.973 ± 0.013
TGGTTAATGG | 0.989 ± 0.038
CACCGTGTCT | 1.02 ± 0.016
GTCGTATTAG | 0.995 ± 0.022
ACTGCCGGTG | 1.25 ± 0.053
TACGGTGTGG | 0.989 ± 0.04
AAAGATGGCT | 0.98 ± 0.025
TGGCGGGGCG | 1.02 ± 0.038
GGGGATCGCC | 1.01 ± 0.03
GACCGATTTT | 0.989 ± 0.015
AAGGAATAGC | 1.044 ± 0.002
ATAGATGCTT | 1.002 ± 0.003
GAGTTGGGTT | 1.01 ± 0.034

Sequence | switch fluorescence ratio
AGGACGGTAG | 0.992 ± 0.058
GAGAGGGTTG | 0.971 ± 0.033
TTTTCGGTCG | 0.999 ± 0.046
TTTTTCAGGC | 0.969 ± 0.055
AAAGAAGGGC | 0.938 ± 0.05
TCTAGAGGGT | 1.01 ± 0.028
GATTTAACGG | 1.01 ± 0.038
GAGCGTAACG | 0.9999 ± 0.0027
TTGGTACTGA | 1.04 ± 0.049
ATAAAAAATA | 1 ± 0.025
TATTTAGGGG | 0.973 ± 0.022
AGATGTGAGC | 1.03 ± 0.059
AAGTGGGGA | 0.986 ± 0.018
AACGGCGGTG | 1.01 ± 0.019
CTGAGGGCTG | 1.03 ± 0.028
TTCTCGGCCC | 1.11 ± 0.019
AGCATGGTAG | 1.02 ± 0.031
CAGGGCGTAT | 1 ± 0.026
GATTGGCAGC | 1.015 ± 0.0035

Source: the supplement of paper PMC10126150
